Assay [1] deals with T1, PfRipr5 (fragment of Ripr, positions 720-934 of SEQ ID NO: 17), made by wheat germ cell-free synthesis with … (UniProt O97302 720-934).
T1 chain: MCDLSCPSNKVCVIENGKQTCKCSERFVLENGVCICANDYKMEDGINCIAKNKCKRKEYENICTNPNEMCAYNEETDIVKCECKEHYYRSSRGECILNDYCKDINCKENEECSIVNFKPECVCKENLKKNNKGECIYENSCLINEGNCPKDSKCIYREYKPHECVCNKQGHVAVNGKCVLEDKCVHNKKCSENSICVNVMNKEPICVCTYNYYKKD
Description: SPR.

The next assay concerns the target 4B7. As to the kind of experiment: SPR; U-value 95, negligible response.

B1: mouse monoclonal antibody 29B11 (antibody, V domains shown)
VH: EVQLQQSGPELMKPGASVKISCKTSGYTFTEYTMHWVKQSHGKSLEWIGGIDPNNGITIYDQKFKGKATLTVDKSSSTAYMELRSLTSEDSAVYYCTRYYYGHYFDYWGQGTTLTVSS
VL: DVLMTQTPLSLPVSLGDQASISCRSSQSIVHNNGHTYLEWYLQKPGQSPKLLIYKVSNRFSGVPDRFSGSGSGTDFTLKISRVEAEDLGIYYCFQDSHVPWTFGGGTKLEIKR
Regarding B1, the affinity in assay [1], expressed as Kd, was 2190 pM.

B2: mouse monoclonal antibody 26H4 (antibody, V domains shown)
VH: EVQLQQSGPELVKPGASVKISCKTSGYTFTEYTMHWVKQSHGKSLEWIGGIDPNNGVTIYNQNFKGKATLTVDKSSSTAYMELRSLTSEDSAVYHCARYYYGHYFDYWGQGTTLTVSS
VL: DVLMTQTPLSLPVSLGDQASISCRSSQSIVHSNGNTYLEWYLQKPGQSPKLLIYKVSNRFSGVPDRFSGSGSGTDFTLKISRVEAEDLGVYYCFQNSHVTWTFGGGTKLEIKR
The molecule B2 had a Kd in assay [1] of 690 pM.

B3: - (other)
chain: MCDLSCPSNKVCVIENGKQTCKCSERFVLENGVCICANDYKMEDGINCIAKNKCKRKEYENICTNPNEMCAYNEETDIVKCECKEHYYRSSRGECILNDYCKDINCKENEECSIVNFKPECVCKENLKKNNKGECIYENSCLINEGNCPKDSKCIYREYKPHECVCNKQGHVAVNGKCVLEDKCVHNKKCSENSICVNVMNKEPICVCTYNYYKKD
For B3, the Kd in the assay with 4B7 was 69.3 pM.

For orientation: Kd means the constant that tells how readily two partners part at equilibrium.

The record behind these values is patent US20230322910A1 (published 2023).
